Measurements: the supplement of paper PMC12042874
± gives the uncertainty stated by the source.

Experiment: amyloid nucleation score (Sup35N fusion, yeast selection) (log enrichment); library NNK1; higher = more nucleation; inactive = no reads after selection
Outline: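 Output and input plasmid inserts were sequenced by Illumina after psi-negative yeast carrying Sup35N fused to peptides of 20 random codons had been induced 24 hours with 100 μM copper sulfate and grown 7 days at 30°C on medium lacking adenine and uracil. The nucleation score is the DiMSum log enrichment of output over input reads, centred on the mode score of non-aggregating sequences. Sequences with under 100 input reads were excluded.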
Work on LTVKCCDVSWVRFWYCIAGG yielded an amyloid nucleation score of 6.618 ± 0.056.
KGLIKDNCNTSGGEFNCGY showed an amyloid nucleation score of -0.278 ± 0.21.
With DLILPRRLSYGYLPVLEGPS the amyloid nucleation score was -0.222 ± 0.76.
Work on TKLTSVYMK yielded an amyloid nucleation score of -0.355 ± 0.62.
Substance PPRYLMRDLTHWSPYR has an amyloid nucleation score of 1.34 ± 0.7.
SPCLLF showed an amyloid nucleation score of -0.637 ± 2.1.
For ANTLRKMNLLSELVLNLLTG, the amyloid nucleation score was 3.3 ± 0.14.
Substance FQDLSLAVSQCLPCVIIGDC has an amyloid nucleation score of -0.131 ± 0.44.
With SGIEAFNRIIGVCCVLEAGR the amyloid nucleation score was 3.58 ± 0.19.
For DYRGYFKSDIYSNFLTFLPG, the amyloid nucleation score was -0.663 ± 0.22.
YMTWL gave an amyloid nucleation score of 0.676 ± 0.44.
In the case of RTNSSSVCSILKGLSQ, the amyloid nucleation score is reported as -0.535 ± 1.1.
FSKVGCDKVIRPGKVPFRSF gave an amyloid nucleation score of 0.491 ± 0.9.
RFLGSWCSIYIGRCVMFDRG showed an amyloid nucleation score of 1.13 ± 0.28.
For YILKGNYLYRRVQLDLRTRR, the amyloid nucleation score was -0.244 ± 0.28.
GCRPMSFKMSVAVGHLMGDT showed an amyloid nucleation score of 2.79 ± 0.2.
Work on AAMAYFWADRLKHGFYTW yielded an amyloid nucleation score of 4.74 ± 0.092.
With GVTYNLK the amyloid nucleation score was -0.685 ± 1.
Work on LSCPRLVTLCCNLWDKYSLW yielded an amyloid nucleation score of 0.955 ± 0.28.
Substance LYFEIYRVIIFKDAFVASMR has an amyloid nucleation score of -0.63 ± 0.64.
Substance RSVAHSYT has an amyloid nucleation score of 0.661 ± 0.54.
For TPLYDIWDVSVDLPLPCIFS, the amyloid nucleation score was “inactive”.
ACVLTAKMAARRIHMWQGLF showed an amyloid nucleation score of -0.744 ± 0.84.
With SNPIRTNV the amyloid nucleation score was -0.533 ± 0.38.
With FLNFPYMLRDCLMIRFIELE the amyloid nucleation score was “inactive”.
SVLFNAAFFKFQNRF showed an amyloid nucleation score of 0.5 ± 0.6.
IFGITNSMLVFMGYCLIHCL showed an amyloid nucleation score of -0.895 ± 1.
IPRYCRRNMADSAIV gave an amyloid nucleation score of 0.923 ± 0.62.
Substance DLSRDAIRSKSEGAVR has an amyloid nucleation score of -1.24 ± 1.7.
Substance GFRQVSCHHHWGGNSWMCR has an amyloid nucleation score of 0.717 ± 0.19.
Substance RMFCPHCDYLVSVFSWNPRC has an amyloid nucleation score of 1.54 ± 0.57.
Work on NYVYSSVVGLLIW yielded an amyloid nucleation score of -0.077 ± 0.19.
MGGSCTSEQYCDWANYGDVL showed an amyloid nucleation score of 0.125 ± 1.4.
RRSLYYGITIN showed an amyloid nucleation score of -0.337 ± 0.32.
Work on MRHRCGHRSVPG yielded an amyloid nucleation score of -0.118 ± 0.68.
For TWLYEIHTILMIGGIMRKRG, the amyloid nucleation score was 0.734 ± 0.45.
SYYSGFRMATVSHRIRWRSM showed an amyloid nucleation score of 1.88 ± 0.7.
For VTFLFNFWHVFC, the amyloid nucleation score was 6.95 ± 0.074.
Work on GKEPVACRIPNKA yielded an amyloid nucleation score of 1.17 ± 0.3.
With TIQMFAVSTCCFFRFTLHWN the amyloid nucleation score was -0.598 ± 0.56.
For SDRQVSSSRTYKHSTTSLGC, the amyloid nucleation score was “inactive”.
With QIIPTRFGWFSNRGCVLGSY the amyloid nucleation score was 1.08 ± 0.38.
Work on HEIKIRHFIRMTGSGSYQSL yielded an amyloid nucleation score of 0.176 ± 0.29.
Work on IEESSWLLDFRSGSALSEVS yielded an amyloid nucleation score of -0.542 ± 0.86.
Work on TTALDFRMDAMEVFRRFDEA yielded an amyloid nucleation score of 0.14 ± 0.39.
In the case of RKLFYG, the amyloid nucleation score is reported as -0.017 ± 0.39.
For VVKSEVNTVA, the amyloid nucleation score was 1.27 ± 0.62.
With CEMMDNPFLLLRVKGSKVRS the amyloid nucleation score was “inactive”.
Substance VRNNYSTSIRVVRMAIMWPG has an amyloid nucleation score of 5.83 ± 0.078.
Substance YWRVVGITIWVVQDLIFGEG has an amyloid nucleation score of -0.783 ± 1.
YNGGLRVMICLPECLLFSLI gave an amyloid nucleation score of -0.246 ± 0.49.
With YGTNRSWGDMEKISSHKRCW the amyloid nucleation score was -0.321 ± 0.34.
YLLTHQRKTSLQE showed an amyloid nucleation score of 1.06 ± 0.97.
GMPGHFLLLKLGYFANRTNR showed an amyloid nucleation score of -1.25 ± 1.1.
AVEGCVFCWIRCVIRFLV showed an amyloid nucleation score of -0.642 ± 0.69.
With VVLAMTVRLWC the amyloid nucleation score was -0.667 ± 1.3.
Substance VNVGRKYGAVLGPGVNYGAK has an amyloid nucleation score of 0.142 ± 0.29.
In the case of MARPLRIHYNYSGSNDLRVR, the amyloid nucleation score is reported as -0.444 ± 0.4.
Work on NLGMALRSCMTSTHSVSMW yielded an amyloid nucleation score of 0.433 ± 0.47.
For IPDVEGQGG, the amyloid nucleation score was 0.469 ± 0.72.
For LCWRYMVLRMNFFAADLYYN, the amyloid nucleation score was 1.39 ± 0.32.
Substance FGHKKPVGLTGLNGFSGTGV has an amyloid nucleation score of 1.91 ± 0.63.
With VMRNYFRDPDRPRLKWIYLS the amyloid nucleation score was 7.095 ± 0.048.
Substance WMNGGQRSVWMCCMGRMHPW has an amyloid nucleation score of 7.738 ± 0.054.
For ISCTTFACTTRLKIRAAS, the amyloid nucleation score was 0.434 ± 0.56.
In the case of DFWSYDDVVFGRC, the amyloid nucleation score is reported as 1.3 ± 0.6.
Work on TAIWTSIIDL yielded an amyloid nucleation score of 0.96 ± 0.42.
SHLCTMIGTCFL showed an amyloid nucleation score of 1.98 ± 0.13.
WSCCAEERVTWGPAEMLLWG showed an amyloid nucleation score of -1.05 ± 2.7.
NYTNTMWSSFLDYVVD gave an amyloid nucleation score of 0.272 ± 0.88.
For VDSFRGHIESFPSLRTFIVS, the amyloid nucleation score was “inactive”.
In the case of SGIGSMWSQLKDSV, the amyloid nucleation score is reported as 0.136 ± 0.59.
Substance GFRSGSCGFGIL has an amyloid nucleation score of -1.14 ± 0.48.
VAFRLTIGCVVSVSINVAGV gave an amyloid nucleation score of 1.19 ± 0.62.
Work on GNTWNIMFNICCLQGIECCL yielded an amyloid nucleation score of 7.349 ± 0.051.
Substance VVCQSDILDLSMWTMMGVSM has an amyloid nucleation score of -0.823 ± 0.66.
DWGRLVYRFNCKDRNRDGAR showed an amyloid nucleation score of 0.177 ± 0.41.
With VVELASLEGGHELTNWVNLV the amyloid nucleation score was 0.231 ± 0.59.
Work on QLSRSVWRRMRRQQKHPLTG yielded an amyloid nucleation score of 1.62 ± 0.81.
In the case of VGRACRPDWFLFLRRRKGSR, the amyloid nucleation score is reported as -0.344 ± 0.44.
MRMRKNEHYE showed an amyloid nucleation score of 0.476 ± 0.46.
In the case of GCRGSFVEGWIAHMADGSFI, the amyloid nucleation score is reported as -0.577 ± 0.57.
For LMFGLAMVNENPRGLSELRR, the amyloid nucleation score was 0.065 ± 0.27.
Substance ISEGVIRDMSNRVRGSMQEI has an amyloid nucleation score of -0.175 ± 1.2.
VWFCLCLYM gave an amyloid nucleation score of 1.95 ± 0.091.
Substance MIVRSVILNDCWAGGACLHF has an amyloid nucleation score of 6.936 ± 0.047.
